Article PMC5758712 (2018)

Experiments:
UBE2L3 = UBE2L3 (Homo sapiens (Human), UniProt P68036); experiment: ITC; UbcH7 cells RING1 fragment, UbcH5A cells whole RBR
UBE2D1 = UBE2D1 (Homo sapiens (Human), UniProt P51668); experiment: as above
Chain of UBE2D1 (P51668 whole entry): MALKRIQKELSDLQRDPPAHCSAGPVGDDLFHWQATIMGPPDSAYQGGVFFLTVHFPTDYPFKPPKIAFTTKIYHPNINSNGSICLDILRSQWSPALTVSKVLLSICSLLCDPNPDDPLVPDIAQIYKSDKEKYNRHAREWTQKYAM

Chain of UBE2L3 (P68036 whole entry, the tested form may be a part): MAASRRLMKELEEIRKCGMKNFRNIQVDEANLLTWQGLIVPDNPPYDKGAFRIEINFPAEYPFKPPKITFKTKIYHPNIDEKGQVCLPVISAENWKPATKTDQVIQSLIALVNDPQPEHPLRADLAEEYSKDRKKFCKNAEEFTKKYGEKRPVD

B1: HHARI (protein)
chain: TRSSAQDMPCQICYLNYPNSYFTGLECGHKFCMQCWSEYLTTKIMEEGMGQTISCPAHGCDILVDDNTVMRLITDSKVKLKYQHLITNSFVECN
UBE2L3
  Kd: 0.21 µM
UBE2D1
  Kd: > 50 µM

B2: TRIAD3A (protein)
chain: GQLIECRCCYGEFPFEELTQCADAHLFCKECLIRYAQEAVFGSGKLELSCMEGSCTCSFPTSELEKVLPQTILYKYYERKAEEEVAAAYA
UBE2L3
  Kd: 3.2 µM
UBE2D1
  Kd: > 50 µM
